According to paper PMC9080080 (Cell Reports, 2022):

Target: SARS-CoV S2P protein (SARS-CoV, strain  (reference …, UniProt P59594, stabilised))
Assay: SPR

B1: XMA09 (antibody, V domains shown)
VH: QVQLVQSGAEVKKPGSSVKVSCKASGGTFSSFAISWVRQAPGQGLEWMGGIIPIYGTANYAQKFQGRVTITADESTSTAYMDLSSLRSEDTAVYYCARDGSSTYYPHNWFDPWGQGTLVTVSS
VL: QSVLTQPPSVSGAPGQRVTISCTGSSSNIGSGYDVHWYQQLPGTAPKLLIYGNSNRPSGVPDRFSGSKSGTSASLAITGLQAEDEADYYCQSYDSSLSGVFGTGTKVTVL
B1: binds.
